# Assay results published in article PMC4277400.
# Target: H1-HFBI: hemagglutinin ectodomain of influenza A/Texas/05/2009 (H1N1) fused to hydrophobin I (Influenza A/Texas/05/2009 (H1N1) virus | Trichoderma reesei) (UniProt P52754)
# Experiment: SEC
substance,measurement,value
H1-HFBI: hemagglutinin ectodomain of influenza A/Texas/05/2009 (H1N1) fused to hydrophobin I (from UniProt P52754 23-97),ratio of HMWO/monomer,2
